# Article PMC12809509
# Molecular target: Prebiotinylated FcγRI (Biotinylated Human CD64 Protein, His, Avitag) (human) (UniProt P12314)
# Assay: SPR; Biacore T200; biotinylated FcγRI immobilised on a streptavidin SA chip (F-chip); single-cycle kinetics, OPD injected at 90, 30, 10 nM, 120 s contact, 900 s dissociation; running buffer HBS-EP 1x pH 7.4; double-referenced; 1:1 Langmuir fit; mean ± SD, n = 3
# Sequence of UniProt P12314 (P12314 16-292): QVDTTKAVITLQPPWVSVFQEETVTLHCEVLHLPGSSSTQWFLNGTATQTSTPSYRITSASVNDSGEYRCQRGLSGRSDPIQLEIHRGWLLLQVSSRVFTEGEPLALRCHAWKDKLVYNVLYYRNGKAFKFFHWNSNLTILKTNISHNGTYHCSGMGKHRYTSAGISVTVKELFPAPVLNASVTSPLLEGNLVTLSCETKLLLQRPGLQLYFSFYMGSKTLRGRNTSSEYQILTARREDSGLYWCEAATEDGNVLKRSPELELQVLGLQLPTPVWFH
substance,measurement,value
nivolumab (antibody),Kd,7.33 nM
same,koff,0.00093 s⁻¹
same,kon,127000 M⁻¹ s⁻¹
